Test results published in paper PMC5199209, “A Cascade of Thermophilic Enzymes As an Approach to the Synthesis of Modified Nucleotides” (Acta Naturae, 2016).

Key:
[1] = biological target: T1, TspRK (ribokinase from Thermus sp. 2.9) (Thermus sp. 2.9, UniProt A0A0B0SD75); assay: HPLC of nucleotides (ATP consumption), nonlinear regression with substrate-inhibition equation; format: biochemical; settings: 1 mM ATP, 5 mM MgCl2, 50 mM KCl, 10 mM KH2PO4, pH 8.0, 75 °C; substrate inhibition by binding of a second molecule; second site
T1 construct: gene rbsK; full-length, six-histidine tag (pET-23d+, NcoI/XhoI), codon-optimized synthetic gene; E. coli host
T1 sequence (A0A0B0SD75 1-301): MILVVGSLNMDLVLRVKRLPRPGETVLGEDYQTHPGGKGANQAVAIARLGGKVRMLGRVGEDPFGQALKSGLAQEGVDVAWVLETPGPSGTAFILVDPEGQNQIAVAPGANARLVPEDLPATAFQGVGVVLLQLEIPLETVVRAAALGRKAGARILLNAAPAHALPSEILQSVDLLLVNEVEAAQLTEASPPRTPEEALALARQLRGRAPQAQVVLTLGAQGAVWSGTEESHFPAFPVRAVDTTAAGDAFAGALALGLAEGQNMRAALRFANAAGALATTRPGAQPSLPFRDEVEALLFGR
From the text: HPLC of nucleotides (ATP consumption), nonlinear regression with substrate-inhibition equation on TspRK (ribokinase from Thermus sp. 2.9)

[2] = substrate: Nc1ncnc2c1ncn2[C@@H]1O[C@H](COP(=O)(O)OP(=O)(O)OP(=O)(O)O)[C@@H](O)[C@H]1O; assay: HPLC of nucleotides (ATP consumption), nonlinear regression, Michaelis-Menten; format: biochemical, Thermus sp. 2.9; settings: 1 mM D-ribose, 5 mM MgCl2, 50 mM KCl, 10 mM KH2PO4, pH 8.0, 75 °C
From the text: HPLC of nucleotides (ATP consumption), nonlinear regression, Michaelis-Menten on TspRK (ribokinase from Thermus sp. 2.9)

OC1OC[C@@H](O)[C@@H](O)[C@H]1O (stereo partly drawn) [D-ribose]
Ki, μM [1]: 1,700 ± 400 μM

B1: TspRK (ribokinase from Thermus sp. 2.9) (Thermus sp. 2.9) (protein)
chain: MILVVGSLNMDLVLRVKRLPRPGETVLGEDYQTHPGGKGANQAVAIARLGGKVRMLGRVGEDPFGQALKSGLAQEGVDVAWVLETPGPSGTAFILVDPEGQNQIAVAPGANARLVPEDLPATAFQGVGVVLLQLEIPLETVVRAAALGRKAGARILLNAAPAHALPSEILQSVDLLLVNEVEAAQLTEASPPRTPEEALALARQLRGRAPQAQVVLTLGAQGAVWSGTEESHFPAFPVRAVDTTAAGDAFAGALALGLAEGQNMRAALRFANAAGALATTRPGAQPSLPFRDEVEALLFGR
notes: full-length, six-histidine tag (pET-23d+, NcoI/XhoI), codon-optimized synthetic gene; E. coli host
Km [2]: 75 ± 11 µM
Vmax [2]: 13 µM/min/mg
kcat [2]: 6.8 ± 0.7 s⁻¹
kcat/Km [2]: 91000 M⁻¹ s⁻¹
